{"source": "paper PMC10897489", "target": "GST-NSP3 1–181 (SARS-CoV-2)", "experiment": "ITC"}
{"substance": "His-FXR1 215–360 (from UniProt A0A0F7L1S3 215-360) (domain or fragment)", "values": [{"measurement": "Kd", "result": "2300 to 2900", "unit": "nM"}]}
